22 molecules from patent publication US20260008817A1, “CYCLIC PEPTIDE OR SALT THEREOF, AND USES THEREOF” (FUJIFILM Corporation, priority 2023, published 2026) can be followed below.

In data set [1] the target is T1, Recombinant Human FGFR1 alpha (IIIc) Fc Chimera Protein (Homo sapiens, UniProt P11362).
T1 construct: purchased R&D systems 658-FR-050
The experiment in a line: ELISA binding affinity of enzymatically synthesized peptide to FGFR. As to conditions: ELISA luminescence signal at 10 nmol/L peptide, SEQ ID NO: 239 standardized to 1; enzyme synthesis product. The essentials:
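Cell-free PUREfrex-translated cyclic peptides (Myc/HiBiT-tagged, quantified by HiBiT luminescence) bound 3 h at room temperature to immobilized FGFR1α(IIIc)-Fc, detected with anti-Myc and chemiluminescence. FGFR-specific signal at 10 nmol/L normalized to a reference cyclic peptide and graded A–D.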

Data set [2] has as its target T1, Recombinant Human FGFR1 alpha (IIIc) Fc Chimera Protein. The experiment in a line: SPR binding affinity of chemically synthesized cyclic peptide to immobilized FGFR. The settings on record: SPR binding amount at 10 nmol/L cyclic peptide, 25° C.; chemically synthesized product. How it is done: The binding affinity of the cyclic peptide to FGFR was evaluated using a surface plasmon resonance (SPR) method.
The binding affinity of the chemically synthesized cyclic peptide to FGFR was evaluated by the following procedure.
A CM5 sensor chip (Cytiva, 29149603) was set in Biacore-T200 (manufactured by Cytiva) which is a surface plasmon resonance device, and an HBS-EP buffer (Cytiva, BR100826) was added as a running buffer at a flow rate of 10 μL/min to equilibrate the flow channel. Next, 70 μL of a mixed aqueous solution of 0.2 mol/L 1-(3-dimethylaminopropyl)-3-ethylcarbodiimide (EDC) and 0.05 mol/L N-hydroxysuccinimide (NHS) was added to activate the sensor chip. Then, Recombinant Human FGFR1 alpha (IIIc) Fc Chimera Protein CF (R&D systems, 658-FR-050) prepared at 50 nmol/L in an Acetate 4.5 buffer (Cytiva, BR100350) was added thereto to perform immobilization at about 5000 RU. Thereafter, the blocking treatment was performed with an ethanolamine solution. In addition, in another flow channel of the same sensor chip, blocking treatment was performed immediately after activation without immobilizing FGFR.
A cyclic peptide diluted to 10 nmol/L using HBS-EP was added to each flow channel of the FGFR-immobilized sensor chip produced above at 25° C. for 10 minutes, then HBS-EP was allowed to flow as a running buffer for 30 minutes, and the binding of the cyclic peptide to FGFR was measured. Thereafter, a regeneration treatment of removing the bound cyclic peptide was performed by repeating the flow of a regeneration liquid in which sodium chloride powder was dissolved in Glysine 1.5 (Cytiva, BR100354) to a final concentration of 0.15 mol/L for 1 minute in each flow channel twice. The binding amount of the cyclic peptide was evaluated from the difference between the measured value of Biacore-T200 in the flow channel in which FGFR was immobilized and the measured value of Biacore-T200 in the flow channel in which FGFR was not immobilised, in a case where a 10 nmol/L cyclic peptide was allowed to flow.
The binding amount of the cyclic peptide evaluated above was normalized to the binding amount of the cyclic peptide molecules per one molecule of FGFR using the molecular weights of the cyclic peptide and FGFR, and the binding affinity to FGFR was evaluated according to the following evaluation criteria. The evaluation result preferably satisfies the evaluation criteria A, B, or C.
• A: The binding amount is 0.7 molecules of the cyclic peptide/one molecule of FGFR or more. • B: The binding amount is 0.5 molecules of the cyclic peptide/one molecule of FGFR or more and less than 0.7 molecules of cyclic peptide/one molecule of FGFR. • C: The binding amount is 0.1 molecules of cyclic peptide/one molecule of FGFR or more and less than 0.5 molecules of cyclic peptide/one molecule of FGFR. • D: The binding amount is less than 0.1 molecules of the cyclic peptide/one molecule of FGFR.
On the technique in general: Surface plasmon resonance follows binding to a sensor surface in real time, without labels.

Data set [3] in a line: Reductive stability of cyclic peptide (DTT treatment, LC). The format is physicochemical. As to conditions: residual rate after DTT treatment, room temperature, 1 hour. How it is done:
The molecular stability of the cyclic peptide was evaluated by analyzing an aqueous solution of the cyclic peptide treated with a reducing agent by liquid chromatography (LC).
The reducing agent treatment was performed under the following conditions based on the concentration of glutathione contained in the cells. 25 μL of a 0.2 mg/mL cyclic peptide aqueous solution was prepared, 58.8 μL of a 12.6 mmol/L DTT aqueous solution was added to the aqueous solution, and the mixture was incubated at room temperature for 1 hour to obtain an aqueous solution of the cyclic peptide treated with a reducing agent. The DTT aqueous solution was used by diluting a 1 mol/L (+−)-dithiothreitol (DTT) solution (FUJIFILM Wako Pure Chemical Corporation, 044-33871) with water. The total area of all the peaks in LC/MS of the cyclic peptide before the reducing agent treatment was set to 100%, and the proportion of the total area of all the peaks in LC/MS of the aqueous solution of the cyclic peptide treated with the reducing agent was determined to calculate the residual rate of the cyclic peptide, and the molecular stability was evaluated according to the following evaluation criteria. The evaluation result preferably satisfies the evaluation criteria A, B, or C.
• A: The residual rate of cyclic peptide is 90% or more. • B: The residual rate of the cyclic peptide is 70% or more and less than 90% • C: The residual rate of the cyclic peptide is 50% or more and less than 70% • D: The residual rate of the cyclic peptide is less than 50%
The LC used for the evaluation of molecular stability was set to the following conditions. • LC device: Prominence series (pump, column oven, autosampler, detector) (manufactured by Shimadzu Corporation) • Detector: photodiode array detector (SPD-M20A), measurement wavelength of 280 nm • Column: TSKgel ODS-100V, inner diameter of 4.6 mm×length of 150 mm, particle diameter of 5 μm (manufactured by Tosoh Corporation) • Eluent A: solution containing 0.1% trifluoroacetic acid as solute, and solvent is 100% water • Eluent B: solution containing 0.1% trifluoroacetic acid as solute, and solvent is 100% acetonitrile • Flow rate: 1.0 mL/min • Injection amount: 25 μL • Gradient: 20% to 50%: Eluent B (0 to 15 minutes), 100%: Eluent B (15 minutes) • Column temperature: 40° C.

Data set [4] deals with Recombinant Human FGFR1 alpha (IIIc) Fc Chimera Protein, CF (R&D systems, 658-FR-050) (human) (UniProt P11362). The experiment in a line: SPR grade, peptide 10 nmol/L over FGFR1-Fc. As to conditions: scale: moleculesofcyclicpeptide/onemoleculeoffgfr.

Positions of bridges follow the written chain, without caps; N, C: chain ends. Non-standard residues stand in square brackets, D forms with d. No end group written: not given here. COCH2 = acetyl group that carries the bridge; NMeL = CN[C@@H](CC(C)C)C(=O)O; hLeu = CC(C)CC[C@H](N)C(=O)O; hCys = N[C@@H](CCS)C(=O)O; Orn = NCCC[C@H](N)C(=O)O; Dab = NCC[C@H](N)C(=O)O; Dap = NC[C@H](N)C(=O)O Bounds are passed on as bounds.

Sequence of Recombinant Human FGFR1 alpha (IIIc) Fc Chimera Protein, CF (R&D systems, 658-FR-050) (human) (P11362 22-376, change not shown): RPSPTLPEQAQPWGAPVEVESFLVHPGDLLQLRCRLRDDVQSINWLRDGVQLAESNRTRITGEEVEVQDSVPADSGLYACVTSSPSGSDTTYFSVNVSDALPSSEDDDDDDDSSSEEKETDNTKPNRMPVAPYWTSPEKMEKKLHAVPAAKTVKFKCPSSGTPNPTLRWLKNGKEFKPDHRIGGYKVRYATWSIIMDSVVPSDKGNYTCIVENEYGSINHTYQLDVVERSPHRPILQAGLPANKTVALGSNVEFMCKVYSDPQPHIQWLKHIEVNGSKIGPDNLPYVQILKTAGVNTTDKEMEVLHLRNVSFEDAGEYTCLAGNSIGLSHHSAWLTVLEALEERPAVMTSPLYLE
T1 sequence (P11362 with tags, fused parts or gaps limits assumed): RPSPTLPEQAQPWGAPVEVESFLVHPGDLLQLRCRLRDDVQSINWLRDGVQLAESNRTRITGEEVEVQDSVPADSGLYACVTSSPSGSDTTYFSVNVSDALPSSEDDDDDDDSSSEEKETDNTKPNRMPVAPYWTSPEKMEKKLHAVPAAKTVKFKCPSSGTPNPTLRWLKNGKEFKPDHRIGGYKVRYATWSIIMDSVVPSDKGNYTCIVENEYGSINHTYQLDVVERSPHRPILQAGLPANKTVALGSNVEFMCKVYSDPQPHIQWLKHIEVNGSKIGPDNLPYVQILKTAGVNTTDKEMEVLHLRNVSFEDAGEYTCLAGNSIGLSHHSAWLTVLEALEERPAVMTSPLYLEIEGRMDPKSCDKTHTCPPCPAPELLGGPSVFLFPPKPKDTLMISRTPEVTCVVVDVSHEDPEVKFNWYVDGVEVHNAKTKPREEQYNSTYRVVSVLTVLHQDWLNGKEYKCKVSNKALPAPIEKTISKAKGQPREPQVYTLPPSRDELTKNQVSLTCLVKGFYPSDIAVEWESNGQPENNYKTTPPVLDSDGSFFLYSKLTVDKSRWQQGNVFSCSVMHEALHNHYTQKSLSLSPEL

Regarding “325 (ICVYTFDANAHSLDDALTK(COCH2)I; thioether 2-19 (inferred)) [compound 325]”, in data set [1], the “Evaluation result of binding affinity to FGFR” value (from here on “Evaluation result … to FGFR”) is recorded as “A (0.7 or more)”.

Regarding “326 (IK(COCH2)VYTFDAHAHSLDAALTCI; thioether 2-19 (inferred)) [compound 326]”, the “Evaluation result … to FGFR” value in data set [1] was “B (0.5 or more and less than 0.7)”.

Consider “327 (A[hCys]VWTFDRHAQEISQALHK(COCH2)VKKK; thioether 2-19) [compound 327]”, for which the “Evaluation result … to FGFR” value in data set [2] is recorded as “A (The binding amount is 0.7 molecules of the cyclic peptide/one molecule of FGFR or more.)”. The “Evaluation result of reductive stability” value in data set [3] is “A (The residual rate of cyclic peptide is 90% or more.)”.

For the molecule “328 (A[hCys]VWTFDRHAQEISQALH[Orn](COCH2)VKKK; thioether 2-19) [compound 328]”, in data set [2], the “Evaluation result … to FGFR” value is listed as “A (The binding amount is 0.7 molecules of the cyclic peptide/one molecule of FGFR or more.)”. Moreover, the “Evaluation result of reductive stability” value in data set [3] is reported as “A (The residual rate of cyclic peptide is 90% or more.)”.

Take “329 (A[hCys]VWTFDRHAQEISQALH[Dab](COCH2)VKKK; thioether 2-19) [compound 329]”: the “Evaluation result … to FGFR” value in data set [2] is “B (The binding amount is 0.5 molecules of the cyclic peptide/one molecule of FGFR or more and less than 0.7 molecules of cyclic peptide/one molecule of FGFR.)”. In data set [3], the “Evaluation result of reductive stability” value was “A (The residual rate of cyclic peptide is 90% or more.)”.

For “330 (A[hCys]VWTFDRHAQEISQALH[Dap](COCH2)VKKK; thioether 2-19) [compound 330]”, the “Evaluation result … to FGFR” value in data set [2] was “A (The binding amount is 0.7 molecules of the cyclic peptide/one molecule of FGFR or more.)”. The “Evaluation result of reductive stability” value in data set [3] is “A (The residual rate of cyclic peptide is 90% or more.)”.

As for “331 (AK(COCH2)VWTFDRHAQEISQALH[hCys]VKKK; thioether 2-19) [compound 331]”, the “Evaluation result … to FGFR” value in data set [2] is “B (The binding amount is 0.5 molecules of the cyclic peptide/one molecule of FGFR or more and less than 0.7 molecules of cyclic peptide/one molecule of FGFR.)”. For the same molecule, the “Evaluation result of reductive stability” value in data set [3] is given as “A (The residual rate of cyclic peptide is 90% or more.)”.

B1: cyclic peptide SEQ ID NO: 334 (peptide)
peptide: A[Dap](COCH2)VWTFDRHAQEISQALH[hCys]VKKK
modifications: thioether 2-19
Turning to B1, the binding amount (SPR, molecules of cyclic peptide bound per one molecule of FGFR at 10 nmol/L peptide) in data set [4] is over 0.7.

B2: cyclic peptide SEQ ID NO: 338 (peptide)
peptide: FXVYTFDAHAHSLDAALNXIKKK
modifications: (Orn(propyl)) and (Hcy) homocysteine joined by a thioether ring
Take B2: the binding amount (SPR, molecules of cyclic peptide bound per one molecule of FGFR at 10 nmol/L peptide) in data set [4] fell in the range of 0.1 to 0.5.

B3: cyclic peptide SEQ ID NO: 330 (peptide)
peptide: A[hCys]VWTFDRHAQEISQALH[Dap](COCH2)VKKK
modifications: thioether 2-19
For the molecule B3, the binding amount (SPR, molecules of cyclic peptide bound per one molecule of FGFR at 10 nmol/L peptide) in data set [4] was over 0.7.

B4: cyclic peptide SEQ ID NO: 329 (peptide)
peptide: A[hCys]VWTFDRHAQEISQALH[Dab](COCH2)VKKK
modifications: thioether 2-19
In the case of B4, the binding amount (SPR, molecules of cyclic peptide bound per one molecule of FGFR at 10 nmol/L peptide) in data set [4] fell in the range of 0.5 to 0.7.

B5: cyclic peptide SEQ ID NO: 331 (peptide)
peptide: AK(COCH2)VWTFDRHAQEISQALH[hCys]VKKK
modifications: thioether 2-19
With B5, the binding amount (SPR, molecules of cyclic peptide bound per one molecule of FGFR at 10 nmol/L peptide) in data set [4] fell in the range of 0.5 to 0.7.

B6: cyclic peptide SEQ ID NO: 339 (peptide)
peptide: F[Orn](COCH2)VYTFDAHAHS[NMeL]DAALN[hCys]IKKK
modifications: thioether 2-19
Turning to B6, the binding amount (SPR, molecules of cyclic peptide bound per one molecule of FGFR at 10 nmol/L peptide) in data set [4] was 0.1 to 0.5.

B7: cyclic peptide SEQ ID NO: 327 (peptide)
peptide: A[hCys]VWTFDRHAQEISQALHK(COCH2)VKKK
modifications: thioether 2-19
Turning to B7, in data set [4], the binding amount (SPR, molecules of cyclic peptide bound per one molecule of FGFR at 10 nmol/L peptide) is over 0.7.

B8: cyclic peptide SEQ ID NO: 328 (peptide)
peptide: A[hCys]VWTFDRHAQEISQALH[Orn](COCH2)VKKK
modifications: thioether 2-19
Take B8: in data set [4], the binding amount (SPR, molecules of cyclic peptide bound per one molecule of FGFR at 10 nmol/L peptide) is over 0.7.

B9: cyclic peptide SEQ ID NO: 340 (peptide)
peptide: F[Orn](COCH2)VYTFDAHAHS[hLeu]DAALN[hCys]IKKK
modifications: thioether 2-19
B9: the binding amount (SPR, molecules of cyclic peptide bound per one molecule of FGFR at 10 nmol/L peptide) in data set [4] lay within 0.5 to 0.7.

B10: cyclic peptide SEQ ID NO: 342 (peptide)
peptide: F[Orn](COCH2)VYTFDAHAHSLDAALN[hCys]KKK
modifications: thioether 2-19
With B10, the binding amount (SPR, molecules of cyclic peptide bound per one molecule of FGFR at 10 nmol/L peptide) in data set [4] is 0.1 to 0.5.

B11: cyclic peptide SEQ ID NO: 341 (peptide)
peptide: [Orn](COCH2)VYTFDAHAHSLDAALN[hCys]IKKK
modifications: thioether 1-18
For B11, the binding amount (SPR, molecules of cyclic peptide bound per one molecule of FGFR at 10 nmol/L peptide) in data set [4] is 0.1 to 0.5.

B12: cyclic peptide SEQ ID NO: 332 (peptide)
peptide: A[Orn](COCH2)VWTFDRHAQEISQALH[hCys]VKKK
modifications: thioether 2-19
For B12, in data set [4], the binding amount (SPR, molecules of cyclic peptide bound per one molecule of FGFR at 10 nmol/L peptide) was over 0.7.

B13: cyclic peptide SEQ ID NO: 333 (peptide)
peptide: A[Dab](COCH2)VWTFDRHAQEISQALH[hCys]VKKK
modifications: thioether 2-19
Turning to B13, the binding amount (SPR, molecules of cyclic peptide bound per one molecule of FGFR at 10 nmol/L peptide) in data set [4] was over 0.7.

B14: cyclic peptide SEQ ID NO: 336 (peptide)
peptide: ACVWTFDRHAQEISQALHCVKKK
modifications: disulfide 2-19
For B14, the binding amount (SPR, molecules of cyclic peptide bound per one molecule of FGFR at 10 nmol/L peptide) in data set [4] was under 0.1.

B15: cyclic peptide SEQ ID NO: 337 (peptide)
peptide: F[Orn](COCH2)VYTFDAHAHSLDAALN[hCys]IKKK
modifications: thioether 2-19
Turning to B15, the binding amount (SPR, molecules of cyclic peptide bound per one molecule of FGFR at 10 nmol/L peptide) in data set [4] fell in the range of 0.1 to 0.5.
